From patent publication USRE44359 (Hoffmann-La Roche Inc, dated 2013)

Biological target: T1, Recombinant P-selectin (R&D Systems) (human, UniProt P16109 42-771)
T1 construct: extracellular domain; also called recombinant human P-selectin; recombinant truncated form of P-selectin
T1 sequence (looked up): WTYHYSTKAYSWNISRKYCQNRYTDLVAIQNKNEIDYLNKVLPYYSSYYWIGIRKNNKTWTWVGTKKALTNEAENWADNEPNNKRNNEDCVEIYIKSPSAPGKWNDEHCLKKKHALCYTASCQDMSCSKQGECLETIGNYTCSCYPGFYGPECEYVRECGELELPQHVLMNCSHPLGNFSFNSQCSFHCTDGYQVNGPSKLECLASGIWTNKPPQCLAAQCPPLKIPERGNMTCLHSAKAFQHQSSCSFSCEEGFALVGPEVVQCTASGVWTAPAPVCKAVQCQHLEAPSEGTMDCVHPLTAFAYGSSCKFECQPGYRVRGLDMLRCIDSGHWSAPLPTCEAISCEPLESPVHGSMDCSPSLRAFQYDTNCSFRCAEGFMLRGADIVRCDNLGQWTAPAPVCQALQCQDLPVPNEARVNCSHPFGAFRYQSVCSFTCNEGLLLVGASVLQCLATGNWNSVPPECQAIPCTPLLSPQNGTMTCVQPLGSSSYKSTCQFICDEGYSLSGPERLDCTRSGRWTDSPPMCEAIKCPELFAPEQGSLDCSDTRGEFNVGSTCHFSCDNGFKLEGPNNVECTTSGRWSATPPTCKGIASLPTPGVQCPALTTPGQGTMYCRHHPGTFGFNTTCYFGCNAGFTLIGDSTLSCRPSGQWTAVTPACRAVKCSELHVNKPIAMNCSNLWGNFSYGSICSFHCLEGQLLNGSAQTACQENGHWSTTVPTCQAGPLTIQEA
Assay: SPR, BIACORE 2000; antibody captured by anti-human Fcγ on CM5, recombinant P-selectin 0-50 nM as analyte; 1:1 Langmuir fit

B1: HuMab 017 (antibody, V domains shown)
VH: QPQLVQSGAEVKKPGASVKVSCKVSGNTLTELSMHWVRQAPGKGLEWMGGFDPENGEAIYAQKFQGRVTMTADTSTDTAYMDLSSLRSEDTAVYYCATDLAGGSDFYYYGLDVWGQGTTVTVSS
VL: AIQLTQSPSSLSASVGDRVTITCRASQGISSALAWYQQKPGKAPKLLIYDASSLESGVPSRFSGSGSGTDFTLTISSLQPEDFATYYCQQFNSYPYTFGQGTKLEIK
notes: Human monoclonal antibody; kappa light and gamma1 heavy chains by the cloning section; also called antibody 017; LC 1004-017
Ka: 5.59e+09 M⁻¹
